Test results from paper PMC6393287, “The RRM of the kRNA-editing protein TbRGG2 uses multiple surfaces to bind and remodel RNA”.

Tests used:
[1] = biological target: TbRGG2 RRM-Cterm (residues 203–320) (T. brucei); assay: SEC; protein alone at 10 mg/ml on Superdex 75; 20 mM Tris-HCl pH 7.5, 150 mM NaCl, 5% glycerol, 1 mM DTT; elution volume compared with protein standards
[2] = biological target: TbRGG2 RRM-Cterm (residues 203–320) (T. brucei); assay: SEC; RRM-Cterm at 16 mg/ml mixed with equimolar U20 RNA, Superdex 75; 20 mM Tris-HCl pH 7.5, 150 mM NaCl, 5% glycerol, 1 mM DTT
TbRGG2 RRM W215A = TbRGG2 RRM W215A (Trypanosoma brucei, UniProt Q389P7 193-259, W205A); assay: FP; FP: 20 mM Tris-HCl pH 7.5, 5% glycerol, 50 mM NaCl (a further '20 mM' printed without component), 1 nM labelled RNA, 25 C; conditions: protein: recombinant; tags: His6 cleaved (thrombin); label: 5'-fluorescein (FP)
TbRGG2 RRM-Cterm W215A = TbRGG2 RRM-Cterm W215A (Trypanosoma brucei, UniProt Q389P7 193-310, W205A); assay: as above; conditions: protein: recombinant; tags: His6 cleaved (thrombin); chain copies: 2; label: 5'-fluorescein (FP)

Molecule	stoichiometry N [1]	stoichiometry N [2]	binding result (TbRGG2 RRM W215A)	binding result (TbRGG2 RRM-Cterm W215A)
TbRGG2 RRM-Cterm (residues 203–320) (domain or fragment)	2	2		
UUUUUUUUUUUUUUUUUUUU (ssRNA) [U20]			no binding	no binding
